Measurements taken from patent publication US20190225650A1, “PEPTIDOMIMETIC MACROCYCLES AND USE THEREOF IN REGULATING HIF1ALPHA” (AILERON THERAPEUTICS, INC., priority 2013, published 2019).
Bridge positions count the residues as written; N and C are the ends. Square brackets hold non-standard residues; d marks the D form. S5 = C=CCCC[C@](C)(N)C(=O)O; Nle = CCCC[C@H](N)C(=O)O

B1: SP-12 (peptide)
peptide: Ac-FIDAEVL[Nle][S5]LVI[S5][Nle]ALDRI-NH2
modifications: staple 9-13
SMILES: CCCC[C@H](NC(=O)[C@H](CC(C)C)NC(=O)[C@@H](NC(=O)[C@H](CCC(=O)O)NC(=O)[C@H](C)NC(=O)[C@H](CC(=O)O)NC(=O)[C@@H](NC(=O)[C@H](Cc1ccccc1)NC(C)=O)[C@@H](C)CC)C(C)C)C(=O)N[C@@]1(C)CCCC=CCCC[C@@](C)(C(=O)N[C@@H](CCCC)C(=O)N[C@@H](C)C(=O)N[C@@H](CC(C)C)C(=O)N[C@@H](CC(=O)O)C(=O)N[C@@H](CCCNC(=N)N)C(=O)N[C@H](C(N)=O)[C@@H](C)CC)NC(=O)[C@H]([C@@H](C)CC)NC(=O)[C@H](C(C)C)NC(=O)[C@H](CC(C)C)NC1=O
B2: SP-15 (peptide)
peptide: Ac-FIDEEVA[Nle][S5]LVI[S5][Nle]ALDRI-NH2
modifications: staple 9-13
SMILES: CCCC[C@H](NC(=O)[C@H](C)NC(=O)[C@@H](NC(=O)[C@H](CCC(=O)O)NC(=O)[C@H](CCC(=O)O)NC(=O)[C@H](CC(=O)O)NC(=O)[C@@H](NC(=O)[C@H](Cc1ccccc1)NC(C)=O)[C@@H](C)CC)C(C)C)C(=O)N[C@@]1(C)CCCC=CCCC[C@@](C)(C(=O)N[C@@H](CCCC)C(=O)N[C@@H](C)C(=O)N[C@@H](CC(C)C)C(=O)N[C@@H](CC(=O)O)C(=O)N[C@@H](CCCNC(=N)N)C(=O)N[C@H](C(N)=O)[C@@H](C)CC)NC(=O)[C@H]([C@@H](C)CC)NC(=O)[C@H](C(C)C)NC(=O)[C@H](CC(C)C)NC1=O
B3: SP-14 (peptide)
peptide: Ac-FIDEEAL[Nle][S5]LVI[S5][Nle]ALDRI-NH2
modifications: staple 9-13
SMILES: CCCC[C@H](NC(=O)[C@H](CC(C)C)NC(=O)[C@H](C)NC(=O)[C@H](CCC(=O)O)NC(=O)[C@H](CCC(=O)O)NC(=O)[C@H](CC(=O)O)NC(=O)[C@@H](NC(=O)[C@H](Cc1ccccc1)NC(C)=O)[C@@H](C)CC)C(=O)N[C@@]1(C)CCCC=CCCC[C@@](C)(C(=O)N[C@@H](CCCC)C(=O)N[C@@H](C)C(=O)N[C@@H](CC(C)C)C(=O)N[C@@H](CC(=O)O)C(=O)N[C@@H](CCCNC(=N)N)C(=O)N[C@H](C(N)=O)[C@@H](C)CC)NC(=O)[C@H]([C@@H](C)CC)NC(=O)[C@H](C(C)C)NC(=O)[C@H](CC(C)C)NC1=O
B4: SP-16 (peptide)
peptide: Ac-FIDEEVLA[S5]LVI[S5][Nle]ALDRI-NH2
modifications: staple 9-13
SMILES: CCCC[C@H](NC(=O)[C@]1(C)CCCC=CCCC[C@](C)(NC(=O)[C@H](C)NC(=O)[C@H](CC(C)C)NC(=O)[C@@H](NC(=O)[C@H](CCC(=O)O)NC(=O)[C@H](CCC(=O)O)NC(=O)[C@H](CC(=O)O)NC(=O)[C@@H](NC(=O)[C@H](Cc2ccccc2)NC(C)=O)[C@@H](C)CC)C(C)C)C(=O)N[C@@H](CC(C)C)C(=O)N[C@@H](C(C)C)C(=O)N[C@@H]([C@@H](C)CC)C(=O)N1)C(=O)N[C@@H](C)C(=O)N[C@@H](CC(C)C)C(=O)N[C@@H](CC(=O)O)C(=O)N[C@@H](CCCNC(=N)N)C(=O)N[C@H](C(N)=O)[C@@H](C)CC
B5: SP-20 (peptide)
peptide: FIDEEVLLALVIAAALDRI
modifications: not fully specified; Ac-FIDEEVL-Nle-$-LVI-$-AALDRI-NH2
B6: SP-23 (peptide)
peptide: FIDEEVLLALVIALALARI
modifications: not fully specified; Ac-FIDEEVL-Nle-$-LVI-$-Nle-ALARI-NH2

Each binder was assayed against T1, His6-tagged p300 (AA 323-423) (UniProt Q09472 323-423) (assay: TR-FRET HIF1a/p300 displacement; grade = IC50 >700 nM).
T1 construct: range 323-423; also called p300-CH; not shown: His6 tag
T1 sequence (Q09472 323-423 limits assumed): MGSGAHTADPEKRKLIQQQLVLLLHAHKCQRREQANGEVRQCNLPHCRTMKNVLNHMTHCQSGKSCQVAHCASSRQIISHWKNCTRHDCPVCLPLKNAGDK
Procedure: The ability of peptides to displace HIF1α c-terminal trans-activation domain from p300-CH was measured by a TR FRET assay. […] The complex was diluted to 300 nM final in complete assay media and competitor peptides were added. The complete assay media contained 150 mM NaCl (Sigma +S5150 or equivalent), 20 mM HEPES pH 7.4 (Boston Bioproducts, Ashland, Mass.; #BB-2076), 7.5 mM CHAPS (Thermo #28300 or equivalent), and 1 mM DTT. Protein and peptide were incubated at room temperature for 1 hour before the addition of anti-Flag-K and anti-6×HIS-D2 (CisBio, Bedford Mass.) HTRF reconstitution buffer (50 mM Phosphate pH 7, 0.8 Potassium Flouride, BSA 0.2%)¹ to a final concentration of 0.5 μM and 4 nM respectively. The reaction continued for an additional two hours at room temperature. The reaction was read on a TECAN F500 plate reader with settings recommended by CisBio. The ratio of donor to acceptor fluorescence was calculated. The resulting data was analyzed with Graphpad Prism 5.0. IC50 values were calculated for both proteins using the One Site Fit-LogIC50 equation and presented in the column “IC₅₀ (nM) (HIF1α_p300 Displacement+CHAPS)” of Table 6. ¹ Cisbio USA, Bedford, Mass.; 61HISDLB (lot 007A), 61FG2KLB (024A), HTRF Buffer (62RB3RDF)

IC50, > 700 nM:
B1
B2
B3
B4
B5
B6
